This passage reports cell death of neuroblastoma cells (SK-N-SH) with CD8+ CAR T cells results from patent publication US20240091260A1.

In this experiment the target is PRAME … (ALY) peptide in complex with HLA-A*0201 (HLA-A2) (human). In words: cell-based or functional assay.

For “PRAME mTCRCAR (chimeric antigen receptor with an scFv from Pr20, IgG4 hinge, 4-1BB costimulatory and CD3zeta signaling domains), on human T cells”, the cell death of neuroblastoma cells (SK-N-SH) with CD8+ CAR T cells at 24 hours was determined as 98%.
